The target of assay [1] is Recombinant Msf fragment Msf 1-203 (strain H44/76) (Neisseria meningitidis strain H44/76). As to the kind of experiment: SEC; HiLoad 16/60 Superdex 200 in 50 mM Tris pH 8, 200 mM NaCl; mass from peak elution volume against protein standards. (In general: Size exclusion chromatography separates by hydrodynamic size, large species first.)
The target of assay [2] is Msf 1-203 KIK66-68AIA (Neisseria meningitidis strain H44/76). As to the kind of experiment: SDS-PAGE of unheated samples with Western blot; purified recombinant Msf proteins not heated before SDS-PAGE; detected with anti-Msf polyclonal antibody; bands near the trimeric molecular weight. A general note: In western blotting, separated proteins are transferred to a membrane and probed.

For assay [3], the target named is Human vitronectin in its unfolded, activated form (human). As to the kind of experiment: ELISA; aVn coated at 74 nM; Msf constructs overlaid at 3 μM; bound Msf detected with rabbit anti-Msf polyclonal antiserum. (In general: An ELISA detects its analyte on a solid surface through an enzyme-linked reagent.)
Assay [4] addresses Recombinant Msf 1-422 construct lacking amino acids 4-82 (Neisseria meningitidis strain H44/76). Kind of assay: SDS-PAGE of unheated samples with Western blot; purified recombinant Msf proteins not heated before SDS-PAGE; detected with anti-Msf polyclonal antibody; bands near the trimeric molecular weight.
The target in assay [5] is Recombinant Msf fragment Msf 197-422 (strain H44/76) (Neisseria meningitidis strain H44/76). The assay is described as above.
Assay [6] has as its target Msf 1-203 K60A (Neisseria meningitidis strain H44/76). The assay is described as above.
For assay [7], the target named is Recombinant Msf fragment Msf 1-86 (strain H44/76) (Neisseria meningitidis strain H44/76). As to the kind of experiment: SEC; HiLoad 16/60 Superdex 200 in 50 mM Tris pH 8, 200 mM NaCl; mass from peak elution volume against protein standards.
In assay [8] the target is Msf 1-203 KK79-80AA (Neisseria meningitidis strain H44/76). As to the kind of experiment: SDS-PAGE of unheated samples with Western blot; purified recombinant Msf proteins not heated before SDS-PAGE; detected with anti-Msf polyclonal antibody; bands near the trimeric molecular weight.
Assay [9] concerns the target Recombinant Msf fragment Msf 1-422 (strain H44/76) (Neisseria meningitidis strain H44/76). Kind of assay: SEC; HiLoad 16/60 Superdex 200 in 50 mM Tris pH 8, 200 mM NaCl; mass from peak elution volume against protein standards.
The target in assay [10] is Msf 1-203 KIK66-68AIA (Neisseria meningitidis strain H44/76). As to the kind of experiment: ELISA; Msf constructs (or control protein) coated at 3 μM in carbonate buffer pH 9.6; aVn 74 nM in PBS overlaid 1 h at RT; bound aVn detected with rabbit polyclonal anti-vitronectin.

The term stoichiometry N denotes a count of units in the complex or per binding partner. Consider “Recombinant Msf fragment Msf 1-203 (strain H44/76) (domain or fragment)”, for which the stoichiometry N in assay [1] came to 3.

In the case of “Msf 1-203 KIK66-68AIA (domain or fragment)”, in [2], the stoichiometry N amounted to 3.

Regarding “Recombinant Msf 1-422 construct lacking amino acids 4-82 (domain or fragment)”, the fold reduction of binding against Msf 1-422 in assay [3] is 4 fold. The stoichiometry N in assay [4] stood at 3.

Take “Recombinant Msf fragment Msf 197-422 (strain H44/76) (domain or fragment)”: the fold lower binding than Msf 1-422 in assay [3] is 6 fold. Besides, the stoichiometry N in assay [5] was found to be 3.

In the case of Msf 1-203 K60A (domain or fragment), the stoichiometry N in [6] came out at 3.

As to “Recombinant Msf fragment Msf 1-86 (strain H44/76) (domain or fragment)”, the stoichiometry N in assay [7] turned out to be 3.

As to “Msf 1-203 KK79-80AA (domain or fragment)”, the stoichiometry N in [8] is 3.

For the substance “Recombinant Msf fragment Msf 1-422 (strain H44/76) (domain or fragment)”, the stoichiometry N in assay [9] came to 3.

As for “Human vitronectin in its unfolded, activated form (natural protein)”, the reduction in Vn binding against Msf 1-203 in assay [10] was 45%.
